Measurements reported in the supplement of paper PMC7877785.
± gives the uncertainty stated by the source.

Assay: self-splicing fitness, log relative to wild type (ln ratio); higher = more splicing; Tetrahymena group I intron in knt gene, E. coli kanamycin selection, DiMSum; sequences stand for … in CUCUCU…GGAGGGAAAAGUUAUCAGGCAUGCACCUGGUAGCUAGUCUUUAAACCAAUAGAUUGCAUCGGUUUAAAAGGCAAGACCGUCAAAUUGCGGGAAAGGGGUCAACAGCCGUUCAGUACCAAGUCUCAGGGGAAACUUUGAGAUGGCCUUGCAAAGGGUAUGGUAAUAAGCUGACGGACAUGGUCCUAACCACGCAGCCAAGUCCUAAGUCAACAGAUCUUCUGUUGAUAUGGAUGCAGUUCACAGACUAAAUGUCGGUCGGGGAAGAUGUAUUCUUCUCAUAAGAUAUAGUCGGACCUCUCCUUAAUGGGAGCUAGCGGAUGAAGUGAUGCAACACUGGAGCCGCUGGGAACUAAUUUGUAUGCGAAAGUAUAUUGAUUAGUUUUGGAGUACUCGUGGUCG
Outline: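 Fitness was computed with DiMSum as the error-weighted combination of replicate fold changes, kanamycin versus none, each normalised to wild type. The library randomised all eight intron nucleotides of the P1ex region, with the intron placed in the knt kanamycin-resistance gene on pET-22b(+) in E. coli BL21(DE3). Six replicate transformations were grown overnight at 37°C or 30°C on LB agar with or without 25 μg/mL kanamycin, plus 100 μg/mL carbenicillin, 50 μM IPTG and 0.2% rhamnose. Pooled colonies were amplicon-sequenced on an Illumina HiSeq 2500.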

Sequence	self-splicing fitness (ln) (30 °C)	self-splicing fitness (ln) (37 °C)
AGUUAGCAAUAUUACGAACG	-0.391 ± 0.088	0.572 ± 0.14
UCCAAGCAAUAUUACGUUCU	-2.62 ± 0.1	-3.9 ± 0.29
CUGGAGCAAUAUUACGUGGC	-2.22 ± 0.21	-2.13 ± 0.25
GUCUAGCAAUAUUACGCGCU	-1.29 ± 0.19	-0.353 ± 0.15
UUAAAGCAAUAUUACGACAU	-0.271 ± 0.012	0.189 ± 0.032
GAAGAGCAAUAUUACGCGCG	-2.21 ± 0.3	-1.36 ± 0.22
GAUCAGCAAUAUUACGAAGG	-2.62 ± 0.13	-1.59 ± 0.14
ACAGAGCAAUAUUACGCGUC		-2.07 ± 0.29
AUGAAGCAAUAUUACGCUGG	-1.42 ± 0.1	-0.718 ± 0.12
UCCGAGCAAUAUUACGGCUC		-0.168 ± 0.28
UUCCAGCAAUAUUACGGUAG	-0.0875 ± 0.065	0.438 ± 0.079
ACUAAGCAAUAUUACGAGAA	-2.46 ± 0.28	-2.37 ± 0.26
GCGGAGCAAUAUUACGUCUC		-2.54 ± 0.38
ACGCAGCAAUAUUACGAAUG	-2.51 ± 0.086	-1.2 ± 0.097
UCAAAGCAAUAUUACGUAAU	-4.1 ± 0.21	-3.66 ± 0.21
ACACAGCAAUAUUACGACGU	-0.452 ± 0.048	0.722 ± 0.073
UCCUAGCAAUAUUACGGUAA	-0.552 ± 0.12	-0.427 ± 0.11
UGAAAGCAAUAUUACGCAAC	-3.98 ± 0.29	-1.69 ± 0.19
CCUCAGCAAUAUUACGCCGC	-3.72 ± 0.37	
GGCAAGCAAUAUUACGCAUA	-0.239 ± 0.12	0.0644 ± 0.13
GCGUAGCAAUAUUACGUAGU	-2.27 ± 0.21	-0.677 ± 0.14
AAUAAGCAAUAUUACGUGGA	-3.22 ± 0.22	-2.42 ± 0.19
GCGCAGCAAUAUUACGCCCG	-1.59 ± 0.2	0.0341 ± 0.27
UAUCAGCAAUAUUACGCUAA	-0.647 ± 0.084	0.529 ± 0.099
CAAUAGCAAUAUUACGGCGA	-3.93 ± 0.4	-2.03 ± 0.24
UCGUAGCAAUAUUACGGAGA	-2.51 ± 0.18	-2.53 ± 0.27

Sequence	self-splicing fitness (ln) (30 °C)	self-splicing fitness (ln) (37 °C)
CUCCAGCAAUAUUACGCGCC	-2.7 ± 0.29	-2.05 ± 0.38
AGCAAGCAAUAUUACGCUUC		-3.29 ± 0.42
UGCAAGCAAUAUUACGCAAU	-3.55 ± 0.4	-2.06 ± 0.32
GCGAAGCAAUAUUACGAAAA	-3.24 ± 0.43	
UUGCAGCAAUAUUACGUUGA	-1.61 ± 0.12	-1.24 ± 0.12
UGCUAGCAAUAUUACGCGAU	-4.01 ± 0.39	-1.03 ± 0.15
CGCUAGCAAUAUUACGCUUC	-2.39 ± 0.28	-2.39 ± 0.39
UUAAAGCAAUAUUACGCCUC	-2.29 ± 0.19	-1.43 ± 0.24
ACACAGCAAUAUUACGUCGA	-1.22 ± 0.089	-0.852 ± 0.092
UCACAGCAAUAUUACGGAGG	-3.27 ± 0.15	-2.29 ± 0.19
CCUUAGCAAUAUUACGAAGG	-3.53 ± 0.32	
GUGUAGCAAUAUUACGACCA	-1.47 ± 0.28	-0.121 ± 0.43
GUCUAGCAAUAUUACGUUGU	-0.779 ± 0.055	-0.582 ± 0.065
UACUAGCAAUAUUACGACCG	-0.634 ± 0.13	0.287 ± 0.16
GGGCAGCAAUAUUACGCGCA	-0.298 ± 0.13	-0.184 ± 0.13
UUUCAGCAAUAUUACGUUAG	-1.31 ± 0.11	-0.474 ± 0.12
ACCUAGCAAUAUUACGACAC	-0.951 ± 0.1	-0.536 ± 0.17
CACAAGCAAUAUUACGUAAC	-2.43 ± 0.095	-0.662 ± 0.14
GUAAAGCAAUAUUACGAGCG	-0.0732 ± 0.09	0.212 ± 0.12
AGAGAGCAAUAUUACGCGUU	-2.09 ± 0.4	
GUGCAGCAAUAUUACGAUGU	-0.56 ± 0.067	-0.37 ± 0.073
AGCUAGCAAUAUUACGACUA	-0.935 ± 0.14	-0.86 ± 0.13
UCUCAGCAAUAUUACGAUUU	-1.99 ± 0.093	-1.1 ± 0.12
AACAAGCAAUAUUACGCAGC	-3.18 ± 0.16	-2.53 ± 0.18
GUAGAGCAAUAUUACGCUGG	-1.56 ± 0.17	-1.53 ± 0.24
UACGAGCAAUAUUACGCUGC		-2.59 ± 0.41

Sequence	self-splicing fitness (ln) (30 °C)	self-splicing fitness (ln) (37 °C)
UGAGAGCAAUAUUACGUGGG	-2.83 ± 0.29	-1.38 ± 0.2
CAUUAGCAAUAUUACGGUGU	-3.92 ± 0.2	-3.76 ± 0.23
CGUUAGCAAUAUUACGGUCU	-1.56 ± 0.18	-1.22 ± 0.16
ACUAAGCAAUAUUACGGACG	-0.961 ± 0.087	-0.106 ± 0.14
UCAAAGCAAUAUUACGCGCG	-0.683 ± 0.082	0.256 ± 0.097
ACCUAGCAAUAUUACGCUAC	-2.93 ± 0.13	-2.02 ± 0.15
GCAUAGCAAUAUUACGUACC	-0.706 ± 0.19	-0.405 ± 0.26
UCGCAGCAAUAUUACGCGGU	-4.16 ± 0.24	-2.41 ± 0.28
CAUGAGCAAUAUUACGGAGC	-3.21 ± 0.25	-3.46 ± 0.35
GGAUAGCAAUAUUACGUUGA	-3.16 ± 0.24	-1.25 ± 0.18
GCGGAGCAAUAUUACGUGGU	-3.54 ± 0.26	-3.01 ± 0.4
CUAGAGCAAUAUUACGGCGG	-0.275 ± 0.075	0.501 ± 0.1
AGGGAGCAAUAUUACGUAGG		-2.14 ± 0.47
GAACAGCAAUAUUACGACAA	-1.24 ± 0.13	-0.239 ± 0.15
GGGCAGCAAUAUUACGUCGG	-0.72 ± 0.12	0.392 ± 0.15
ACCGAGCAAUAUUACGGUUG	-3.88 ± 0.21	-2.51 ± 0.16
AAAAAGCAAUAUUACGUACA	-0.777 ± 0.069	-0.613 ± 0.071
CGUAAGCAAUAUUACGCAAG	-1.99 ± 0.13	-1.01 ± 0.13
UAGAAGCAAUAUUACGAGAC	-2.67 ± 0.35	-1.99 ± 0.3
CAGGAGCAAUAUUACGGUCA	-2.39 ± 0.3	-1.56 ± 0.32
GCAAAGCAAUAUUACGGAAU	-2.6 ± 0.1	-0.938 ± 0.11
GCACAGCAAUAUUACGAUCG	-1.08 ± 0.05	-0.27 ± 0.069
CUUAAGCAAUAUUACGCUUC	-3.15 ± 0.4	
UCAGAGCAAUAUUACGGCAU	-3.07 ± 0.33	-1.87 ± 0.29
CUGGAGCAAUAUUACGUCCG	-2.17 ± 0.16	-0.559 ± 0.15
CGCUAGCAAUAUUACGAACC	-2.92 ± 0.2	-0.219 ± 0.16
